Substrate: C/C(=C\Cc1c(O)c(Cl)c(C)c(C=O)c1O)CC/C=C(\C)[C@@H](O)C[C@@H]1OC1(C)C
Test: cells, lysate or membranes
Settings: microsomal fraction of ascI-expressing yeast

B1: AscI (Acremonium egyptiacum) (protein)
chain: MPQLAGKLILAGLIPLGAWVLHGFASCNGLIQMFEDFGKQTVLSDGVTDYTGAFTGLEGLDRLLRTLLNFFWPVANGHDWALSLHAFMFAGQGVPLLVLNMLEGARPGNKSLVVSYVTVFGILYMVVGLAIMAPLYLFLHLLTSRTATAPSKAKVAVDPNTAKAVGFGVFVGYVLPTIFMSLPHPSLLSTDTKVLSVVFWQAVPLWASVCAYFASTALGQSATSRSSSNLPSALGAVYAASLIIATATHVATFAISANLSDTWSGIFTFLIPPNPFNTDMRISSFLEGATWFLQWDYTMMSLAYMVWAIGIRHGVEVPRSSHHFETLGKIALRSMAKLLVMGPIGAALSLVWERDQLLWQLDSESGEKGEKNRSRRMSRKWMFS
- Km: 50.4 ± 11.1 µM
